Measured values taken from patent US20230220035A1 (DONG-A ST CO., LTD., published 2023).
*1 amine or outer side, *2 acyl side, *3 side chain or, on linkers, in order; H or OH if unused. Side-chain parts run from the residue outwards. [ ]: non-standard residue; d: D form. The star is where a group is joined. C18 diacid = O=C(O)CCCCCCCCCCCCCCCCC(=O)*; γGlu = O=C(O)[C@H](CCC(=O)[*:2])N[*:1]; Stearoyl = CCCCCCCCCCCCCCCCCC(=O)*; Palmitoyl = CCCCCCCCCCCCCCCC(=O)*; AEEA = NCCOCCOCC(=O)O; Aib = CC(C)(N)C(=O)O

B1: Comparative Example Compound 8 (peptide)
peptide: H-H[Aib]QGTFTSDK([AEEA-AEEA-γGlu-Stearoyl])SKYLD[Aib]RRAQDFVQWLMNTK-OH
SMILES: CCCCCCCCCCCCCCCCCC(=O)N[C@@H](CCC(=O)NCCOCCOCC(=O)NCCOCCOCC(=O)NCCCC[C@H](NC(=O)[C@H](CC(=O)O)NC(=O)[C@H](CO)NC(=O)[C@@H](NC(=O)[C@H](Cc1ccccc1)NC(=O)[C@@H](NC(=O)CNC(=O)[C@H](CCC(N)=O)NC(=O)C(C)(C)NC(=O)[C@@H](N)Cc1c[nH]cn1)[C@@H](C)O)[C@@H](C)O)C(=O)N[C@@H](CO)C(=O)N[C@@H](CCCCN)C(=O)N[C@@H](Cc1ccc(O)cc1)C(=O)N[C@@H](CC(C)C)C(=O)N[C@@H](CC(=O)O)C(=O)NC(C)(C)C(=O)N[C@@H](CCCNC(=N)N)C(=O)N[C@@H](CCCNC(=N)N)C(=O)N[C@@H](C)C(=O)N[C@@H](CCC(N)=O)C(=O)N[C@@H](CC(=O)O)C(=O)N[C@@H](Cc1ccccc1)C(=O)N[C@H](C(=O)N[C@@H](CCC(N)=O)C(=O)N[C@@H](Cc1c[nH]c2ccccc12)C(=O)N[C@@H](CC(C)C)C(=O)N[C@@H](CCSC)C(=O)N[C@@H](CC(N)=O)C(=O)N[C@H](C(=O)N[C@@H](CCCCN)C(=O)O)[C@@H](C)O)C(C)C)C(=O)O
B2: Comparative Example Compound 9 (peptide)
peptide: H-H[Aib]QGTFTSDK([AEEA-AEEA-γGlu-Stearoyl])SKYLD[Aib]RRAQDFVQWLMNTKEYEK(Palmitoyl)EYE-OH
SMILES: CCCCCCCCCCCCCCCCCC(=O)N[C@@H](CCC(=O)NCCOCCOCC(=O)NCCOCCOCC(=O)NCCCC[C@H](NC(=O)[C@H](CC(=O)O)NC(=O)[C@H](CO)NC(=O)[C@@H](NC(=O)[C@H](Cc1ccccc1)NC(=O)[C@@H](NC(=O)CNC(=O)[C@H](CCC(N)=O)NC(=O)C(C)(C)NC(=O)[C@@H](N)Cc1c[nH]cn1)[C@@H](C)O)[C@@H](C)O)C(=O)N[C@@H](CO)C(=O)N[C@@H](CCCCN)C(=O)N[C@@H](Cc1ccc(O)cc1)C(=O)N[C@@H](CC(C)C)C(=O)N[C@@H](CC(=O)O)C(=O)NC(C)(C)C(=O)N[C@@H](CCCNC(=N)N)C(=O)N[C@@H](CCCNC(=N)N)C(=O)N[C@@H](C)C(=O)N[C@@H](CCC(N)=O)C(=O)N[C@@H](CC(=O)O)C(=O)N[C@@H](Cc1ccccc1)C(=O)N[C@H](C(=O)N[C@@H](CCC(N)=O)C(=O)N[C@@H](Cc1c[nH]c2ccccc12)C(=O)N[C@@H](CC(C)C)C(=O)N[C@@H](CCSC)C(=O)N[C@@H](CC(N)=O)C(=O)N[C@H](C(=O)N[C@@H](CCCCN)C(=O)N[C@@H](CCC(=O)O)C(=O)N[C@@H](Cc1ccc(O)cc1)C(=O)N[C@@H](CCC(=O)O)C(=O)N[C@@H](CCCCNC(=O)CCCCCCCCCCCCCCC)C(=O)N[C@@H](CCC(=O)O)C(=O)N[C@@H](Cc1ccc(O)cc1)C(=O)N[C@@H](CCC(=O)O)C(=O)O)[C@@H](C)O)C(C)C)C(=O)O
B3: Compound 5 (peptide)
peptide: H-H[Aib]QGTFTSDK([AEEA-AEEA-γGlu-Stearoyl])SKYLD[Aib]RRAQDFVQWLMNTKEYEK([AEEA-AEEA-AEEA-γGlu-C18 diacid])EYE-OH
SMILES: CCCCCCCCCCCCCCCCCC(=O)N[C@@H](CCC(=O)NCCOCCOCC(=O)NCCOCCOCC(=O)NCCCC[C@H](NC(=O)[C@H](CC(=O)O)NC(=O)[C@H](CO)NC(=O)[C@@H](NC(=O)[C@H](Cc1ccccc1)NC(=O)[C@@H](NC(=O)CNC(=O)[C@H](CCC(N)=O)NC(=O)C(C)(C)NC(=O)[C@@H](N)Cc1c[nH]cn1)[C@@H](C)O)[C@@H](C)O)C(=O)N[C@@H](CO)C(=O)N[C@@H](CCCCN)C(=O)N[C@@H](Cc1ccc(O)cc1)C(=O)N[C@@H](CC(C)C)C(=O)N[C@@H](CC(=O)O)C(=O)NC(C)(C)C(=O)N[C@@H](CCCNC(=N)N)C(=O)N[C@@H](CCCNC(=N)N)C(=O)N[C@@H](C)C(=O)N[C@@H](CCC(N)=O)C(=O)N[C@@H](CC(=O)O)C(=O)N[C@@H](Cc1ccccc1)C(=O)N[C@H](C(=O)N[C@@H](CCC(N)=O)C(=O)N[C@@H](Cc1c[nH]c2ccccc12)C(=O)N[C@@H](CC(C)C)C(=O)N[C@@H](CCSC)C(=O)N[C@@H](CC(N)=O)C(=O)N[C@H](C(=O)N[C@@H](CCCCN)C(=O)N[C@@H](CCC(=O)O)C(=O)N[C@@H](Cc1ccc(O)cc1)C(=O)N[C@@H](CCC(=O)O)C(=O)N[C@@H](CCCCNC(=O)COCCOCCNC(=O)COCCOCCNC(=O)COCCOCCNC(=O)CC[C@H](NC(=O)CCCCCCCCCCCCCCCCC(=O)O)C(=O)O)C(=O)N[C@@H](CCC(=O)O)C(=O)N[C@@H](Cc1ccc(O)cc1)C(=O)N[C@@H](CCC(=O)O)C(=O)O)[C@@H](C)O)C(C)C)C(=O)O

target: Human GLP-1 receptor (human, UniProt P43220); assay: cell-based or functional assay

Binder | EC50 [nM] | Maximum activation (% vs GLP-1) [%]
B1 | < 0.1 | 99.3
H-H[Aib]QGTFTSDK([AEEA-AEEA-γGlu-Stearoyl])SKYLD[Aib]RRAQDFVQWLMNTKEYEK(15‑carboxy‑1‑oxopentadecyl)EYE-OH [Compound 2] |  | 104
B2 |  | 70.4
B3 |  | 93.6
H-H[Aib]QGTFTSDK([AEEA-AEEA-γGlu-Stearoyl])SKYLD[Aib]RRAQDFVQWLMNTKEYEK([Lys-AEEA-AEEA-AEEA-γGlu-C18 diacid])EYE-OH [Compound 6] |  | 83.8
H-H[Aib]QGTFTSDK([AEEA-AEEA-γGlu-Stearoyl])SKYLD[Aib]RRAQDFVQWLMNTKEYEK(17‑aminocarboxy‑1‑oxoheptadecyl)EYE-OH [Compound 7] | < 0.1 | 90.8
H-H[Aib]QGTFTSDK([AEEA-AEEA-γGlu-Stearoyl])SKYLD[Aib]RRAQDFVQWLMNTKEYEK(15‑aminocarboxy‑1‑oxopentadecyl)EYE-OH [Comparative Example Compound 11] | < 0.1 | 92.8
H-H[Aib]QGTFTSDK([AEEA-AEEA-γGlu-Stearoyl])SKYLD[Aib]RRAQDFVQWLMNTKEYEK(13‑aminocarboxy‑1‑oxotridecyl)EYE-OH [Comparative Example Compound 10] | < 0.1 | 105

target: Human glucagon receptor (human, UniProt P47871); assay: cell-based or functional assay

Binder | EC50 [nM] | Maximum activation (% vs GCG) [%]
B1 | < 0.1 | 103
H-H[Aib]QGTFTSDK([AEEA-AEEA-γGlu-Stearoyl])SKYLD[Aib]RRAQDFVQWLMNTKEYEK(15‑carboxy‑1‑oxopentadecyl)EYE-OH [Compound 2] |  | 100
B2 |  | 73.3
B3 |  | 99.4
H-H[Aib]QGTFTSDK([AEEA-AEEA-γGlu-Stearoyl])SKYLD[Aib]RRAQDFVQWLMNTKEYEK([Lys-AEEA-AEEA-AEEA-γGlu-C18 diacid])EYE-OH [Compound 6] |  | 89.1
H-H[Aib]QGTFTSDK([AEEA-AEEA-γGlu-Stearoyl])SKYLD[Aib]RRAQDFVQWLMNTKEYEK(17‑aminocarboxy‑1‑oxoheptadecyl)EYE-OH [Compound 7] | < 0.1 | 100
H-H[Aib]QGTFTSDK([AEEA-AEEA-γGlu-Stearoyl])SKYLD[Aib]RRAQDFVQWLMNTKEYEK(15‑aminocarboxy‑1‑oxopentadecyl)EYE-OH [Comparative Example Compound 11] | < 0.1 | 98.5
H-H[Aib]QGTFTSDK([AEEA-AEEA-γGlu-Stearoyl])SKYLD[Aib]RRAQDFVQWLMNTKEYEK(13‑aminocarboxy‑1‑oxotridecyl)EYE-OH [Comparative Example Compound 10] | < 0.1 | 110
